Source: the supplement of paper PMC10567573

B1: SETD8 (parent)
chain: FVVEYHGDLIEITDAKKREALYAQ

Variants of: B1
Assay: protein stability index of a GFP-peptide fusion (GPS, HEK-293T) (PSI 1-6); higher = more stable
Settings: c terminus: a fixed tail appended
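Further: lentivirally expressed fusions sorted by FACS into six bins by GFP to DsRed ratio, PSI derived from sequencing read proportions per bin multiplied by bin number.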

Row | Variant | protein stability index
1 | FVVEYHGFLIEITDAKKREALYAQ [D8F] | 2.77
2 | FVVEYHGNLIEITDAKKREALYAQ [D8N] | 1.7
3 | FVVEYHGKLIEITDAKKREALYAQ [D8K] | 1.82
4 | FVVEYHGYLIEITDAKKREALYAQ [D8Y] | 1.84
5 | FVVEYHGSLIEITDAKKREALYAQ [D8S] | 2.33
6 | FVVEYHGGLIEITDAKKREALYAQ [D8G] | 2.01
7 | FVVEYHGCLIEITDAKKREALYAQ [D8C] | 2.01
8 | FVVEYHGQLIEITDAKKREALYAQ [D8Q] | 1.59
9 | FVVEYHGPLIEITDAKKREALYAQ [D8P] | 1.83
10 | FVVEYHGLLIEITDAKKREALYAQ [D8L] | 2.85
11 | FVVEYHGELIEITDAKKREALYAQ [D8E] | 2.15
12 | FVVEYHGMLIEITDAKKREALYAQ [D8M] | 3.28
13 | FVVEYHGALIEITDAKKREALYAQ [D8A] | 1.65
14 | FVVEYHGHLIEITDAKKREALYAQ [D8H] | 1.56
15 | FVVEYHGVLIEITDAKKREALYAQ [D8V] | 3.4
16 | FVVEYHGTLIEITDAKKREALYAQ [D8T] | 1.45
17 | FVVEYHGDLIERTDAKKREALYAQ [I12R] | 2.48
18 | FVVEYHGDLIEPTDAKKREALYAQ [I12P] | 2.36
19 | FVVEYHGDLIEMTDAKKREALYAQ [I12M] | 1.72
20 | FVVEYHGDLIEKTDAKKREALYAQ [I12K] | 2.75
21 | FVVEYHGDLIEHTDAKKREALYAQ [I12H] | 2.48
22 | FVVEYHGDLIEETDAKKREALYAQ [I12E] | 2.74
23 | FVVEYHGDLIEDTDAKKREALYAQ [I12D] | 2.22
24 | FVVEYHGDLIECTDAKKREALYAQ [I12C] | 2.1

Row | Variant | protein stability index
25 | FVVEYHGDLIEWTDAKKREALYAQ [I12W] | 2.45
26 | FVVEYHGDLIEYTDAKKREALYAQ [I12Y] | 1.56
27 | FVVEYHGDLIEATDAKKREALYAQ [I12A] | 1.98
28 | FVVEYHGDLIEQTDAKKREALYAQ [I12Q] | 2.77
29 | FVVEYHGDLIELTDAKKREALYAQ [I12L] | 2.55
30 | FVVEYHGDLIEGTDAKKREALYAQ [I12G] | 1.64
31 | FVVEYHGDLIESTDAKKREALYAQ [I12S] | 2.09
32 | FVVEYHGDLIENTDAKKREALYAQ [I12N] | 2.54
33 | FVVEYHGDLIEFTDAKKREALYAQ [I12F] | 2.21
34 | FVVEYHGDLIEVTDAKKREALYAQ [I12V] | 2.18
35 | FVVEYHGDLIETTDAKKREALYAQ [I12T] | 2.02
36 | FVVEAHGDLIEITDAKKREALYAQ [Y5A] | 1.99
37 | FVVEEHGDLIEITDAKKREALYAQ [Y5E] | 3.86
38 | FVVETHGDLIEITDAKKREALYAQ [Y5T] | 2.32
39 | FVVEDHGDLIEITDAKKREALYAQ [Y5D] | 3.2
40 | FVVEFHGDLIEITDAKKREALYAQ [Y5F] | 1.88
41 | FVVEVHGDLIEITDAKKREALYAQ [Y5V] | 2.06
42 | FVVEMHGDLIEITDAKKREALYAQ [Y5M] | 2.11
43 | FVVEKHGDLIEITDAKKREALYAQ [Y5K] | 2.68
44 | FVVEGHGDLIEITDAKKREALYAQ [Y5G] | 2.4
45 | FVVESHGDLIEITDAKKREALYAQ [Y5S] | 2.41
46 | FVVEIHGDLIEITDAKKREALYAQ [Y5I] | 1.95
47 | FVVEHHGDLIEITDAKKREALYAQ [Y5H] | 2.1
48 | FVVEQHGDLIEITDAKKREALYAQ [Y5Q] | 2.93

Row | Variant | protein stability index
49 | FVVEPHGDLIEITDAKKREALYAQ [Y5P] | 3.03
50 | FVVERHGDLIEITDAKKREALYAQ [Y5R] | 2.67
51 | FVVEWHGDLIEITDAKKREALYAQ [Y5W] | 1.43
52 | FVVECHGDLIEITDAKKREALYAQ [Y5C] | 2.05
53 | FVVELHGDLIEITDAKKREALYAQ [Y5L] | 1.89
54 | FVVENHGDLIEITDAKKREALYAQ [Y5N] | 2.73
55 | FVVEYHGDLIEIDDAKKREALYAQ [T13D] | 1.97
56 | FVVEYHGDLIEICDAKKREALYAQ [T13C] | 2.42
57 | FVVEYHGDLIEIFDAKKREALYAQ [T13F] | 3.25
58 | FVVEYHGDLIEIKDAKKREALYAQ [T13K] | 2.79
59 | FVVEYHGDLIEIEDAKKREALYAQ [T13E] | 1.76
60 | FVVEYHGDLIEIIDAKKREALYAQ [T13I] | 2.24
61 | FVVEYHGDLIEIADAKKREALYAQ [T13A] | 1.73
62 | FVVEYHGDLIEILDAKKREALYAQ [T13L] | 2.63
63 | FVVEYHGDLIEIHDAKKREALYAQ [T13H] | 2.02
64 | FVVEYHGDLIEIGDAKKREALYAQ [T13G] | 1.41
65 | FVVEYHIDLIEITDAKKREALYAQ [G7I] | 3.15
66 | FVVEYHNDLIEITDAKKREALYAQ [G7N] | 2.34
67 | FVVEYHMDLIEITDAKKREALYAQ [G7M] | 1.08
68 | FVVEYHKDLIEITDAKKREALYAQ [G7K] | 1.66
69 | FVVEYHVDLIEITDAKKREALYAQ [G7V] | 1.11
70 | FVVEYHHDLIEITDAKKREALYAQ [G7H] | 2.08
71 | FVVEYHQDLIEITDAKKREALYAQ [G7Q] | 1.83
72 | FVVEYHRDLIEITDAKKREALYAQ [G7R] | 2.76

Row | Variant | protein stability index
73 | FVVEYHSDLIEITDAKKREALYAQ [G7S] | 1.89
74 | FVVEYHFDLIEITDAKKREALYAQ [G7F] | 2.87
75 | FVVEYHTDLIEITDAKKREALYAQ [G7T] | 1.94
76 | FVVEYHADLIEITDAKKREALYAQ [G7A] | 1.56
77 | FVVEYHDDLIEITDAKKREALYAQ [G7D] | 2.33
78 | FVVEYHEDLIEITDAKKREALYAQ [G7E] | 2.33
79 | FVVEYHCDLIEITDAKKREALYAQ [G7C] | 1.76
80 | FVVEYHPDLIEITDAKKREALYAQ [G7P] | 2.65
81 | FVVEYMGDLIEITDAKKREALYAQ [H6M] | 2.04
82 | FVVEYNGDLIEITDAKKREALYAQ [H6N] | 2.2
83 | FVVEYIGDLIEITDAKKREALYAQ [H6I] | 2.19
84 | FVVEYCGDLIEITDAKKREALYAQ [H6C] | 3.73
85 | FVVEYFGDLIEITDAKKREALYAQ [H6F] | 2.12
86 | FVVEYTGDLIEITDAKKREALYAQ [H6T] | 1.76
87 | FVVEYWGDLIEITDAKKREALYAQ [H6W] | 1.35
88 | FVVEYKGDLIEITDAKKREALYAQ [H6K] | 1.74
89 | FVVEYDGDLIEITDAKKREALYAQ [H6D] | 3.13
90 | FVVEYRGDLIEITDAKKREALYAQ [H6R] | 2.18
91 | FVVEYEGDLIEITDAKKREALYAQ [H6E] | 2.88
92 | FVVEYSGDLIEITDAKKREALYAQ [H6S] | 2.31
93 | FVVEYLGDLIEITDAKKREALYAQ [H6L] | 2.02
94 | FVVEYYGDLIEITDAKKREALYAQ [H6Y] | 2.16
